Legend:
Experiment in all cases: pull-down
[1] = molecular target: T1, Flag-tagged Pds5b, co-expressed with Δ86-cyclin A2 (human, UniProt Q9NTI5 1-1447)
T1 sequence: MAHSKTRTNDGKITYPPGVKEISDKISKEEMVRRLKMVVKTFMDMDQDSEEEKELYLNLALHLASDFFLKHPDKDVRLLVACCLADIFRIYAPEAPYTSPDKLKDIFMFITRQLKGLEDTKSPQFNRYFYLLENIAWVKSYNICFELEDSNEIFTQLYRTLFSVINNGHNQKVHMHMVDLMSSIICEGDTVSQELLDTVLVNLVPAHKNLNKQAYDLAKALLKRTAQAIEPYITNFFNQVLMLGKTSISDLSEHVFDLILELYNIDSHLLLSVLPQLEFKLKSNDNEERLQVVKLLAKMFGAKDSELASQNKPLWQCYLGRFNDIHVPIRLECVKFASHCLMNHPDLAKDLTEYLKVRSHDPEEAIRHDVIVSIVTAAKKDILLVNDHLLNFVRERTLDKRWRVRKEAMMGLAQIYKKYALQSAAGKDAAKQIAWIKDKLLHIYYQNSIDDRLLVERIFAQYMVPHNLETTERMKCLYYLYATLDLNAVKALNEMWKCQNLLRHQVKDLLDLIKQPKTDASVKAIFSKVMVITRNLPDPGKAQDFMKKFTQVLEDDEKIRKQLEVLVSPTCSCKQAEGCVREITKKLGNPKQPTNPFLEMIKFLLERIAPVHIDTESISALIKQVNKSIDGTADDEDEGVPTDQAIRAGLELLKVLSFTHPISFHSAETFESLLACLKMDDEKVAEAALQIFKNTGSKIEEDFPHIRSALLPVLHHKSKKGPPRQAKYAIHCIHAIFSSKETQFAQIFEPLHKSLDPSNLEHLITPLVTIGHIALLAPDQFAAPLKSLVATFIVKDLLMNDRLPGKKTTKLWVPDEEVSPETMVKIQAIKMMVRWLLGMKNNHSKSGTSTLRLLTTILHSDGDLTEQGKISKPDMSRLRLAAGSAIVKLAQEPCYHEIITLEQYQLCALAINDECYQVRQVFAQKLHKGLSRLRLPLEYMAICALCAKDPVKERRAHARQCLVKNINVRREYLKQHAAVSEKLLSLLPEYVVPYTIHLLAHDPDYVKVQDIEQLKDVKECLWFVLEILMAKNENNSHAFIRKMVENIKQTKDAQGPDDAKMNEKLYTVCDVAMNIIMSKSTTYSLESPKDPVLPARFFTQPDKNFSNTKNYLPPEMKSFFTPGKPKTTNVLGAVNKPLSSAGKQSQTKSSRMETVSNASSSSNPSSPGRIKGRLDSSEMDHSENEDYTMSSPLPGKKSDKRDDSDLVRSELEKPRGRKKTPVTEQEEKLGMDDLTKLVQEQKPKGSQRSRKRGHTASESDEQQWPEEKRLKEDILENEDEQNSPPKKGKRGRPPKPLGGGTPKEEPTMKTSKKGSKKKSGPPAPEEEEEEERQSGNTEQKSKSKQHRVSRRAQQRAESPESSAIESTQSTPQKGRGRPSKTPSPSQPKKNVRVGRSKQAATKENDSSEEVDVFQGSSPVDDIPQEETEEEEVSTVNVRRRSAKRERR

[2] = molecular target: T2, Flag-tagged Pds5b, co-expressed with Nek2aΔMR (human, UniProt Q9NTI5 1-1447)
T2 sequence: T1 sequence

Flag-tagged Pds5a = molecular target: T3, Flag-tagged Pds5a (human, UniProt Q29RF7 1-1337)
T3 sequence: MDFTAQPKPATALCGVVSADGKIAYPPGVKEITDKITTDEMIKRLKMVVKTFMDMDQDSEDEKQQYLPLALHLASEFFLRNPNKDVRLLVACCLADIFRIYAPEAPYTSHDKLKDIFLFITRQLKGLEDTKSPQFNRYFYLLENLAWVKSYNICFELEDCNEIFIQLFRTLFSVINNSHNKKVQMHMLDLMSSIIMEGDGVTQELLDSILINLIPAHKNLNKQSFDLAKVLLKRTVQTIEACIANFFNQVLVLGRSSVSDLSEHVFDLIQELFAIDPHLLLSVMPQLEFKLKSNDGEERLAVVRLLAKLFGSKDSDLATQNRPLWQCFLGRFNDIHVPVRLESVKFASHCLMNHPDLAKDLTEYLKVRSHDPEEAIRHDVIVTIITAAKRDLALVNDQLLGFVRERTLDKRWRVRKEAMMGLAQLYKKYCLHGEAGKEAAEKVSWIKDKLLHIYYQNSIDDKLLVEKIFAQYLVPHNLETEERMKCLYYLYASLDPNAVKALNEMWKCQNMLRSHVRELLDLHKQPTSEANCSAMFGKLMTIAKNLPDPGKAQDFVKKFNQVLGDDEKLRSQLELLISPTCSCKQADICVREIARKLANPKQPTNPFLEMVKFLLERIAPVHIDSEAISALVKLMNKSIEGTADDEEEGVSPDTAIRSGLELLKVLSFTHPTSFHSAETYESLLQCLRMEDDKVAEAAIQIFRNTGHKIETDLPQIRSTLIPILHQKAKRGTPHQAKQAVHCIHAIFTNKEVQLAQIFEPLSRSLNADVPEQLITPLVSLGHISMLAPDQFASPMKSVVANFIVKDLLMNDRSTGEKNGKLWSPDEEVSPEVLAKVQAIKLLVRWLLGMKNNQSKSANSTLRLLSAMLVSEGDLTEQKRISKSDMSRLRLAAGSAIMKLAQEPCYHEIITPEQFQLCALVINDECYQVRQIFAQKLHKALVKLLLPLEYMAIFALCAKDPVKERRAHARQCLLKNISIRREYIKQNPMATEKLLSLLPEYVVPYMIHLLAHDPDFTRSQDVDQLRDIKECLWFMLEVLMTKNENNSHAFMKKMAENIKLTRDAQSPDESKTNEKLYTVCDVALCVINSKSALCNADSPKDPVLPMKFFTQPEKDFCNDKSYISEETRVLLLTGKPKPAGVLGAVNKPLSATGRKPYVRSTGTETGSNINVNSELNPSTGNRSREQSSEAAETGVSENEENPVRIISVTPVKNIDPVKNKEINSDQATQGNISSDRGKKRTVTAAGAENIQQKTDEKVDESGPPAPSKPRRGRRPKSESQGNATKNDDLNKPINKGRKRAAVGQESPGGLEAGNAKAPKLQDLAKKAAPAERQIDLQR

Measured: binding result

B1: recombinant human Wapl (natural protein)
chain: MTSRFGKTYSRKGGNGSSKFDEVFSNKRTTLSTKWGETTFMAKLGQKRPNFKPDIQEIPKKPKVEEESTGDPFGFDSDDESLPVSSKNLAQVKCSSYSESSEAAQLEEVTSVLEANSKISHVVVEDTVVSDKCFPLEDTLLGKEKSTNRIVEDDASISSCNKLITSDKVENFHEEHEKNSHHIHKNADDSTKKPNAETTVASEIKETNDTWNSQFGKRPESPSEISPIKGSVRTGLFEWDNDFEDIRSEDCILSLDSDPLLEMKDDDFKNRLENLNEAIEEDIVQSVLRPTNCRTYCRANKTKSSQGASNFDKLMDGTSQALAKANSESSKDGLNQAKKGGVSCGTSFRGTVGRTRDYTVLHPSCLSVCNVTIQDTMERSMDEFTASTPADLGEAGRLRKKADIATSKTTTRFRPSNTKSKKDVKLEFFGFEDHETGGDEGGSGSSNYKIKYFGFDDLSESEDDEDDDCQVERKTSKKRTKTAPSPSLQPPPESNDNSQDSQSGTNNAENLDFTEDLPGVPESVKKPINKQGDKSKENTRKIFSGPKRSPTKAVYNARHWNHPDSEELPGPPVVKPQSVTVRLSSKEPNQKDDGVFKAPAPPSKVIKTVTIPTQPYQDIVTALKCRREDKELYTVVQHVKHFNDVVEFGENQEFTDDIEYLLSGLKSTQPLNTRCLSVISLATKCAMPSFRMHLRAHGMVAMVFKTLDDSQHHQNLSLCTAALMYILSRDRLNMDLDRASLDLMIRLLELEQDASSAKLLNEKDMNKIKEKIRRLCETVHNKHLDLENITTGHLAMETLLSLTSKRAGDWFKEELRLLGGLDHIVDKVKECVDHLSRDEDEEKLVASLWGAERCLRVLESVTVHNPENQSYLIAYKDSQLIVSSAKALQHCEELIQQYNRAEDSICLADSKPLPHQNVTNHVGKAVEDCMRAIIGVLLNLTNDNEWGSTKTGEQDGLIGTALNCVLQVPKYLPQEQRFDIRVLGLGLLINLVEYSARNRHCLVNMETSCSFDSSICSGEGDDSLRIGGQVHAVQALVQLFLERERAAQLAESKTDELIKDAPTTQHDKSGEWQETSGEIQWVSTEKTDGTEEKHKKEEEDEELDLNKALQHAGKHMEDCIVASYTALLLGCLCQESPINVTTVREYLPEGDFSIMTEMLKKFLSFMNLTCAVGTTGQKSISRVIEYLEHC
binds: all assays above

Source: publication doi:10.1101/2024.03.12.584565 (bioRxiv, 2024)
